The source of these data is patent US6306832, “Peptide antiestrogen compositions and methods for treating breast cancer” (University of California).

In the data set the target is estrogen receptor alpha (ER), purified recombinant (Homo sapiens, UniProt P03372 P03372:1-595). Put plainly: EMSA; 60 nM ER, 100 nM estradiol, HEPES pH 7.5, 100 mM KCl, 1 mM EDTA, poly(dI-dC), 4 C; competed by 100x unlabelled ERE; blocked by 0.5 uM pY8/pY10/mY8 peptides, not by conY. The following applies: tags: Panvera (Madison, WI); chain copies: 2 (homodimer, stated); label: 32P 5'-end (polynucleotide kinase). As for the experimental part:
FIG. 6B. Purified human ER (60 nM) was incubated with control solution (CON), a 100-fold molar excess of unlabelled ERE (100 ERE) or with peptides at 250 nM or 500 nM. ER was incubated with peptides for 15 min at 4° C. followed by addition of 100 nM estradiol-17β and ^32P-ERE. Peptides included phosphotyrosyl-octapeptide (pY8), control non-phosphorylated octapeptide (conY), malonyltyrosyl-octapeptide(mY8), phosphotyrosine amino acid alone (pY), as an additional control, and a phosphotyrosyl-decapeptide, N-Val-Pro-Leu-pTyr-Asp-Leu-Leu-Leu-Glu-Met-C (pYl 0) (SEQ ID NO:3). Although not shown, the effect of conY at 500 nM was the same as that shown at a concentration of 250 nM.
Interaction of ER with nuclear ERE is prerequisite for activation of transcription. To assess the specific binding of ER with ERE, purified recombinant human ER from MCF-7 breast cancer cells were used. A double-stranded 27-bp probe (5'-[…]-3') (SEQ ID NO:12) encoding the Xenopus vitellogenin A_2 ERE was ^32P-end-labeled with polynucleotide kinase. Gel mobility shift assays for the human ER were performed as described (Arnold et al., 1995a; Arnold and Notides, 1995; Arnold et al., 1995b). […]

Sequence of estrogen receptor alpha (ER), purified recombinant (P03372 whole entry, one chain of several): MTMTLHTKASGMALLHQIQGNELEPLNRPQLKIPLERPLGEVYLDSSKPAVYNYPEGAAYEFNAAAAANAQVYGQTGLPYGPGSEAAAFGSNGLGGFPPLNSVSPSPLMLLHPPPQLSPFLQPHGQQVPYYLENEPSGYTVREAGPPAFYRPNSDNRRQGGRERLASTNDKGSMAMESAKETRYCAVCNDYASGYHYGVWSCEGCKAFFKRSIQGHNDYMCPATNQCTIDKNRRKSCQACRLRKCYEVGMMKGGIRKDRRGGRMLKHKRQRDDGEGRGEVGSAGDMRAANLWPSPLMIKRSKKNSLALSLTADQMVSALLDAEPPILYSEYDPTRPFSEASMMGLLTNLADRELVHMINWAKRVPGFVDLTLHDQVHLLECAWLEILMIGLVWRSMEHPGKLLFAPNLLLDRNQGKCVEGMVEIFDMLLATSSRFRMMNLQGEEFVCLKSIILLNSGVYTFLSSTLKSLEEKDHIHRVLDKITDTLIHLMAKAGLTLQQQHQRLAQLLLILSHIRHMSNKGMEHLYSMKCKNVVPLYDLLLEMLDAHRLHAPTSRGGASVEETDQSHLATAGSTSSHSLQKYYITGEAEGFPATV

B1: vitellogenin A2 ERE 27-bp probe (dsDNA)
DNA 1: GATCCTAGAGGTCACAGTGACCTACGA
DNA 2: TCGTAGGTCACTGTGACCTCTAGGATC
Turning to B1, the binding result is recorded as “binds”.
